The results in this text go back to patent US20240287172A1 (SCIRHOM, published 2024).

The assay addresses T1, hiR2-FL-E594V-T7 (human, UniProt Q6PJF5 1-856).
T1 sequence: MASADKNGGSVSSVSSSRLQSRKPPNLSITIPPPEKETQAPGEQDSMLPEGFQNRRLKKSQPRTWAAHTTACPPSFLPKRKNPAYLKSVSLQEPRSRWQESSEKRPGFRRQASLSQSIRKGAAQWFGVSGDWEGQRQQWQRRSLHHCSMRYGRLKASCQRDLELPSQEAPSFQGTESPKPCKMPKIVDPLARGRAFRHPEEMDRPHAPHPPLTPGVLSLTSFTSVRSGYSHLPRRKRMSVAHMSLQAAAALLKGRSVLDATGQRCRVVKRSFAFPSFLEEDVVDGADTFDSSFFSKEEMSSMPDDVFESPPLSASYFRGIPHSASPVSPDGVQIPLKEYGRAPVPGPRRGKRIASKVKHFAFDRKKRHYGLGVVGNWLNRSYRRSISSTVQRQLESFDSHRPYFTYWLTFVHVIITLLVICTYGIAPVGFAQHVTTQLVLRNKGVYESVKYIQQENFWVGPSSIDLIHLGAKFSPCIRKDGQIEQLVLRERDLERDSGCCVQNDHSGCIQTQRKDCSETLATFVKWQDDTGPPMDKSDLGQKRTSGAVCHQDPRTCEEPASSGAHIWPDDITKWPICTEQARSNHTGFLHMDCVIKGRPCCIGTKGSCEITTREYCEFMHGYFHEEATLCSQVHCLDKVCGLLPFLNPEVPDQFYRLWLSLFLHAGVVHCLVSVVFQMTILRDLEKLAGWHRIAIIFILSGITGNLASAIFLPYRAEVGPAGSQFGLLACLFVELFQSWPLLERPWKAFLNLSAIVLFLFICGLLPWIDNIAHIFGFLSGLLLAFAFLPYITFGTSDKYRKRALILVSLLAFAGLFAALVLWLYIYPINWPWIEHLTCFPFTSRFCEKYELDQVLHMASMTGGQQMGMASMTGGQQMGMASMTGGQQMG
The assay is described as follows: FACS, MEF-DKO cells, 3 µg/ml. The gist of the method: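 Binding read by flow cytometry after a PE goat anti-mouse IgG F(ab′)2 secondary (1:100, on ice, 1 h, dark). Before that, immortalized MEF-DKO lines carrying single-mutant hiR2-FL-T7 constructs were incubated 1 h on ice with 3 μg/ml antibody or FACS buffer alone.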

B1: antibody 48 (antibody, V domains shown)
VH: QVQLQQSGTELVRPGTSVKVSCKASGYAFTNYLIEWVKQRPGQGLEWIGVINPGSGFTKYNEKFKGKATLTADKSSSTVYMHLSSLTSEDSAVYFCARGLYRAMDYWGQGTSVTVSS
VL: DIQMTQSPASQSASLGESVTITCLASQTIATWLAWYQQKPGKSPQLLIYGATTLADGVPSRFSGGGSGTKFSFKISSLQAEDFVSYYCQQLYSTPYTFGGGTKLEIK
notes: mouse IgG, kappa light chain; also called clone #48; purified antibody 48
As to B1, the “loss of binding vs wild type” value is no less than 30%.

B2: antibody 50 (antibody, V domains shown)
VH: QVQLQQSGAELVRPGASVKVSCKASGYAFSNYLIEWVKQRPGQGLEWIGVINPGSGFTKYNEKFKGKATLTADKSSSTAYMQLSSLTSEDSAVYFCARGLYRAMDYWGQGTSVTVSS
VL: DIQMTQSPASQSASLGESVTITCLASQTIGTWLAWYQQKPGKSPQLLIYAAASLADGVPSRFSGGGSGTKFSFKISSLQAEDFVNYYCQQIYSTPYTFGGGTKLEIK
notes: mouse IgG, kappa light chain; also called clone #50; purified antibody 50
With B2, the “loss of binding vs wild type” value is no less than 30%.
